In the RNAGym collection of RNA variant scans (doi:10.7554/elife.80360) one finds self-cleavage data, which are given here for 167 variants.

The chains are these.
B1: HDV Ribozyme (parent)
chain: GGCCGGCAUGGUCCCAGCCUCCUCGCUGGCGCCGGCUGGGCAACAUUCCGAGGGGACCGUCCCCUCGGUAAUGGCGAAUGGGACCCA

This series covers variants of B1. Briefly: self-cleavage, relative activity (ratio to wild type); higher = more cleavage; co-transcriptional.
U12G G25U: the self-cleavage was determined as 0.0573.

On to U37G, for which the self-cleavage was 0.131.

Regarding G35U A42U, the self-cleavage is 0.246.

As to C36U G80C, the self-cleavage was 0.12.

For C61A A71G, the self-cleavage came out at 1.11.

Regarding U12G C13A, the self-cleavage worked out at 0.415.

With G31A G35C, the self-cleavage came out at 0.

G67C G76U: the self-cleavage was determined as 1.11.

Turning to C33U U65A, the self-cleavage turned out to be 0.739.

Consider G25C A51C, for which the self-cleavage worked out at 0.128.

In the case of U47G C84G, the self-cleavage came to 0.475.

As to U20G G59U, the self-cleavage came out at 0.231.

Take A8G G10A: the self-cleavage came to 0.369.

Regarding C7G G34C, the self-cleavage was found to be 0.213.

For G52C A87G, the self-cleavage came to 0.985.

G17U G74A: the self-cleavage was determined as 0.129.

For C75U G82C, the self-cleavage was found to be 0.108.

Consider C57U A77U, for which the self-cleavage stood at 0.648.

As to C57U A83C, the self-cleavage stood at 0.665.

For the variant G11C A43C, the self-cleavage was found to be 0.

Regarding A70C C75A, the self-cleavage was found to be 0.123.

In the case of C14A G17U, the self-cleavage stood at 0.199.

Turning to G68C G81A, the self-cleavage is 0.526.

Take A16C G53A: the self-cleavage was 0.674.

On to C13G C49U, for which the self-cleavage worked out at 0.

Turning to G38A G68U, the self-cleavage was determined as 0.18.

As for G38A C49U, the self-cleavage was determined as 0.119.

Consider G17C G35U, for which the self-cleavage came to 0.0773.

On to C3A G38U, for which the self-cleavage was 0.0471.

Take C3A G38A: the self-cleavage turned out to be 0.124.

On to A56U C84A, for which the self-cleavage stood at 0.895.

For U20A C85U, the self-cleavage came out at 0.0405.

C13A C24U: the self-cleavage was 0.145.

A16U A78G: the self-cleavage is 0.332.

Turning to A43C C64G, the self-cleavage was 0.415.

Consider C36U U69C, for which the self-cleavage worked out at 0.801.

G10A U60A: the self-cleavage stood at 0.739.

As to A8G A87C, the self-cleavage was determined as 1.18.

In the case of G25A A83U, the self-cleavage is 0.0678.

In the case of U20A G76C, the self-cleavage was 0.

For C4A U46G, the self-cleavage turned out to be 0.0615.

Turning to C41G G81U, the self-cleavage amounted to 0.166.

Consider C14U A51G, for which the self-cleavage was 0.898.

Regarding A16C U23C, the self-cleavage was 0.87.

Turning to A45C A51G, the self-cleavage was 0.587.

Take A16U C30U: the self-cleavage is 0.68.

A43G A77U: the self-cleavage amounted to 0.0504.

For U69G A70C, the self-cleavage came to 1.15.

For U47A C75U, the self-cleavage turned out to be 0.203.

In the case of U27G G38C, the self-cleavage worked out at 0.0692.

As for G50U C84G, the self-cleavage is 0.724.

As to A42U G73U, the self-cleavage is 0.378.

On to U27G A51G, for which the self-cleavage came out at 1.03.

As for C22A C61U, the self-cleavage worked out at 0.237.

Consider U9G U46C, for which the self-cleavage amounted to 0.748.

Consider G17A C63A, for which the self-cleavage turned out to be 0.611.

Consider C22U C57G, for which the self-cleavage was 0.914.

As to C57G C66U, the self-cleavage turned out to be 0.848.

With C26G G82U, the self-cleavage amounted to 0.604.

As for G1A G40U, the self-cleavage was 0.0615.

As to C21U C41A, the self-cleavage came out at 0.339.

On to C14G C84A, for which the self-cleavage worked out at 0.519.

As to C57U C58G, the self-cleavage was 0.762.

As to G29A G31C, the self-cleavage is 0.154.

As to A16G G29U, the self-cleavage was found to be 0.0354.

In the case of U27C G74U, the self-cleavage amounted to 0.332.

With C14A A87U, the self-cleavage was determined as 0.623.

For A16U C63A, the self-cleavage was 1.08.

Regarding U27C A56G, the self-cleavage is 0.575.

With G1U C33A, the self-cleavage was 0.295.

As for C19U C85G, the self-cleavage turned out to be 0.102.

Regarding C33G C48A, the self-cleavage was found to be 0.

On to U20G A71U, for which the self-cleavage is 0.151.

As to C33U C66A, the self-cleavage is 0.774.

On to A16C C75U, for which the self-cleavage was 0.138.

With A8U U65G, the self-cleavage turned out to be 0.748.

Take C18A C49A: the self-cleavage worked out at 0.111.

In the case of G40U C58U, the self-cleavage was 0.669.

As to G40C A77G, the self-cleavage was 0.271.

Regarding G50C A51C, the self-cleavage worked out at 0.814.

For G25C U65A, the self-cleavage stood at 0.155.

For C14U C75G, the self-cleavage amounted to 0.353.

As to C7G G80A, the self-cleavage turned out to be 0.145.

On to U9C C63U, for which the self-cleavage was 0.987.

In the case of G1C G25C, the self-cleavage is 0.

As for G76C A87G, the self-cleavage stood at 1.08.

As to C13G G17A, the self-cleavage came to 0.0652.

As for G2A U72G, the self-cleavage was 0.0906.

For the variant G6A A16U, the self-cleavage stood at 0.446.

Turning to C49U C63G, the self-cleavage came to 0.396.

For the variant G6U C19A, the self-cleavage was 0.0326.

Regarding C21G U65A, the self-cleavage was found to be 0.0536.

Consider C22G C41A, for which the self-cleavage stood at 0.0346.

Take A43G G55C: the self-cleavage came out at 0.743.

As for C18U U46A, the self-cleavage amounted to 0.291.

U60C U69C: the self-cleavage turned out to be 1.2.

As to C61U A77C, the self-cleavage worked out at 0.65.

For the variant G52A G54C, the self-cleavage was 0.842.

On to A8G C62U, for which the self-cleavage is 0.95.

Take U72C A83C: the self-cleavage is 0.332.

Turning to U37G G53C, the self-cleavage is 0.145.

As for C49A G82A, the self-cleavage was found to be 0.104.

For the variant C41U C44G, the self-cleavage turned out to be 0.492.

Consider G52U A83C, for which the self-cleavage stood at 0.259.

C30A U69C: the self-cleavage was 0.623.

For the variant G31U C66A, the self-cleavage worked out at 0.45.

G54C U60C: the self-cleavage amounted to 1.22.

As to C18U C30U, the self-cleavage stood at 0.185.

On to C3A C32A, for which the self-cleavage came to 0.0545.

With U27G A78U, the self-cleavage is 0.0831.

On to G31C G35C, for which the self-cleavage was 0.0978.

Turning to U27C G28C, the self-cleavage was 0.123.

In the case of C21G U72G, the self-cleavage was 0.0462.

In the case of U12C A83C, the self-cleavage was determined as 0.166.

In the case of G25U C41U, the self-cleavage worked out at 0.188.

Turning to C18A G25A, the self-cleavage came out at 0.133.

For the variant C13G C21U, the self-cleavage was found to be 0.141.

In the case of C22A C36G, the self-cleavage is 0.0354.

Consider U9G C44A, for which the self-cleavage was 0.415.

Regarding C62A G80U, the self-cleavage was determined as 0.16.

As for G1U C24G, the self-cleavage was 0.447.

As for G2C A70C, the self-cleavage is 0.0248.

C36U G68U: the self-cleavage is 0.786.

Turning to C57A G67U, the self-cleavage was 1.06.

Turning to U20G A77U, the self-cleavage was found to be 0.237.

For C3U G74A, the self-cleavage is 0.245.

With C22A C62G, the self-cleavage came out at 0.212.

As to U23A C85U, the self-cleavage worked out at 0.98.

G10U G52C: the self-cleavage is 0.639.

Turning to G40U C64A, the self-cleavage stood at 0.57.

In the case of A45G A77U, the self-cleavage amounted to 0.482.

For the variant C62G G73A, the self-cleavage was determined as 0.534.

For the variant G1U A8U, the self-cleavage turned out to be 0.388.

In the case of C3G C49G, the self-cleavage was determined as 0.523.

In the case of A45U C48G, the self-cleavage is 0.739.

As to C24A U47G, the self-cleavage worked out at 0.434.

As for C18U G73C, the self-cleavage was found to be 0.217.

In the case of G10A C84A, the self-cleavage was determined as 0.562.

With A56G G68U, the self-cleavage amounted to 1.18.

Turning to A45U G73U, the self-cleavage was 0.302.

For C18U A56G, the self-cleavage came out at 0.719.

For the variant G10A G54C, the self-cleavage was 0.582.

As for G31C G81A, the self-cleavage turned out to be 0.0791.

As to G73C G74A, the self-cleavage is 0.422.

Take C4U G59C: the self-cleavage was 0.81.

With C13A U23C, the self-cleavage came out at 0.271.

Turning to G5U U46A, the self-cleavage amounted to 0.119.

In the case of G59C C66A, the self-cleavage came to 0.914.

Turning to G6A G82A, the self-cleavage was determined as 0.252.

For G29A C62G, the self-cleavage is 0.169.

In the case of U72A, the self-cleavage was 0.698.

For A45G U47C, the self-cleavage is 0.787.

On to G1C C13G, for which the self-cleavage is 0.0791.

As for C62G G82U, the self-cleavage worked out at 0.0923.

Take A8G A56C: the self-cleavage was 0.867.

For the variant C24A G67C, the self-cleavage amounted to 0.739.

With A43G C49A, the self-cleavage was determined as 0.554.

C48A U72C: the self-cleavage turned out to be 0.519.

As to G5U A16C, the self-cleavage was 0.383.

With C49U G73C, the self-cleavage was determined as 0.409.

Consider G38A C75A, for which the self-cleavage was found to be 0.115.

Consider A45G A51G, for which the self-cleavage stood at 0.612.

For the variant G6C A70G, the self-cleavage is 0.175.

In the case of C75A C84A, the self-cleavage came to 0.269.

On to C19G G73C, for which the self-cleavage worked out at 0.0244.

Consider G2C C22G, for which the self-cleavage is 0.0875.

With C3A G52A, the self-cleavage is 0.699.
